Paper PMC5763148

What was measured:
Assay in all cases: SPR
[1] = target: T1, murine CCL17 (mCCL17, TARC) (Mus musculus, UniProt Q9WUZ6 24-93)
T1 sequence: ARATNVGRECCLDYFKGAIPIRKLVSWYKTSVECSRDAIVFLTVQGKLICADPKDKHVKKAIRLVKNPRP

[2] = target: T1, murine CCL17 (mCCL17, TARC); remark: listed apart in the source
[3] = target: human CCL17 (hCCL17, TARC) (Homo sapiens, UniProt Q92583 24-94)
Chain of human CCL17 (hCCL17, TARC) (Q92583 24-94): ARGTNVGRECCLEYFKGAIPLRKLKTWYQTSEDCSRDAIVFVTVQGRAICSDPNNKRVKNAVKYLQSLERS

GGGGGCGUGUAUGCCAGACCUGCCGAUGUCCUUAAGGUCGACGCUGU (structured_RNA, 2'-fluoro pyrimidines) [control aptamer (scrambled MF35.47)]
binding result [1]: no binding

GGGUCGUCGCGGGUUGGCUCGUAGAUCGGGCCGGUACAGACGACCC (structured_RNA, 2'-fluoro pyrimidines) [MF11.46]
Kd [2]: 0.9 ± 0.1 nM | binding result [3]: no binding

GGGAGGACGAUGCGGGAGCAGCAUUUGUGGUUUCCCGAUCGCUUCCC (structured_RNA, 2'-fluoro pyrimidines) [MF35.47]
Kd [2]: 7.5 ± 1.5 nM | binding result [3]: no binding
